Test results as given in publication PMC10284872, “FRET analysis of the temperature-induced structural changes in human TRPV3” (Scientific Reports, 2023).

Biological target: the molecule itself
Assay: SEC; fluorescence-detection size-exclusion chromatography (FSEC); heat-treated (42 °C) samples of each construct compared with a heat-untreated sample

Protein | stoichiometry N
human TRPV3 single-cysteine construct A131C (cysteine-free background, K169A) (natural protein, UniProt Q8NET8 1-790, looked up, C131 labelled with sulfo-Cy3 maleimide or sulfo-Cy5 maleimide (1:1 mixture) in the FRET samples, human TRPV3, full length; printed as A131C on the cysteine-free construct, so the native C131 stands again and the other 12 cysteines are replaced; K169A added; Homotetrameric channel in DDM/CHS with lipids; also called hTRPV3 A131C; ARD construct; source: Sf9 cells, baculovirus (Bac-to-Bac), purified (DDM/CHS solubilisation, anti-FLAG resin)) MKAHPKEMVPLMGKRVAAPSGNPAILPEKRPAEITPTKKSAHFFLEIEGFEPNPTVAKTSPPVFSKPMDSNIRQAISGNADDMDSPQSPQDDVTETPSNPNSPSAQLAKEEQRRKKRRLKKRIFAAVSEGCVEELVELLVELQELARRRHDEDVPDFLMHKLTASDTGATALMKALLNINPNTKEIVRILLAFAEENDILGRFINAEYTEEAYEGQTALNIAIERRQGDIAALLIAAGADVNAHAKGAFFNPKYQHEGFYFGETPLALAAATNQPEIVQLLMEHEQTDITSRDSRGNNILHALVTVAEDFKTQNDFVKRMYDMILLRSGNWELETTRNNDGLTPLQLAAKMGKAEILKYILSREIKEKRLRSLSRKFTDWAYGPVSSSLYDLTNVDTTTDNSVLEITVYNTNIDNRHEMLTLEPLHTLLHMKWKKFAKHMFFLSFLFYFFYNITLTLVSYYRPREEEAIPHPLALTHKMGWLQLLGRMFVLIWAMLISVKEGIAIFLLRPSDLQSILSDAWFHFVFFIQAVLVILSVFLYLFAYKEYLAFLVLAMALGWANMLYYTRGFQSMGMYSVMIQKVILHDVLKFLFVYIVFLLGFGVALASLIEKAPKDNKDASSYGSFSDAVLELFKLTIGLGDLNIQQNSKYPILFLFLLITYVILTFVLLLNMLIALMGETVENVSKESERIWRLQRARTILEFEKMLPEWLRSRFRMGELAKVAEDDFRLALRINEVKWTEWKTHVSFLNEDPGPVRRTDFNKIQDSSRNNSKTTLNAFEEVEEFPETSV | 4
human TRPV3 single-cysteine construct A721C (cysteine-free background, K169A) (natural protein, UniProt Q8NET8 1-790, looked up, C721 labelled with sulfo-Cy3 maleimide or sulfo-Cy5 maleimide (1:1 mixture) in the FRET samples, human TRPV3, full length; printed as A721C on the cysteine-free construct, so the native C721 stands again and the other 12 cysteines are replaced; K169A added; Homotetrameric channel in DDM/CHS with lipids; also called hTRPV3 A721C; C-terminal domain construct; source: Sf9 cells, baculovirus (Bac-to-Bac), purified (DDM/CHS solubilisation, anti-FLAG resin)) MKAHPKEMVPLMGKRVAAPSGNPAILPEKRPAEITPTKKSAHFFLEIEGFEPNPTVAKTSPPVFSKPMDSNIRQAISGNADDMDSPQSPQDDVTETPSNPNSPSAQLAKEEQRRKKRRLKKRIFAAVSEGAVEELVELLVELQELARRRHDEDVPDFLMHKLTASDTGATALMKALLNINPNTKEIVRILLAFAEENDILGRFINAEYTEEAYEGQTALNIAIERRQGDIAALLIAAGADVNAHAKGAFFNPKYQHEGFYFGETPLALAAATNQPEIVQLLMEHEQTDITSRDSRGNNILHALVTVAEDFKTQNDFVKRMYDMILLRSGNWELETTRNNDGLTPLQLAAKMGKAEILKYILSREIKEKRLRSLSRKFTDWAYGPVSSSLYDLTNVDTTTDNSVLEITVYNTNIDNRHEMLTLEPLHTLLHMKWKKFAKHMFFLSFLFYFFYNITLTLVSYYRPREEEAIPHPLALTHKMGWLQLLGRMFVLIWAMLISVKEGIAIFLLRPSDLQSILSDAWFHFVFFIQAVLVILSVFLYLFAYKEYLAFLVLAMALGWANMLYYTRGFQSMGMYSVMIQKVILHDVLKFLFVYIVFLLGFGVALASLIEKAPKDNKDASSYGSFSDAVLELFKLTIGLGDLNIQQNSKYPILFLFLLITYVILTFVLLLNMLIALMGETVENVSKESERIWRLQRARTILEFEKMLPEWLRSRFRMGELCKVAEDDFRLALRINEVKWTEWKTHVSFLNEDPGPVRRTDFNKIQDSSRNNSKTTLNAFEEVEEFPETSV | 4
human TRPV3 single-cysteine construct L513C (cysteine-free background, K169A) (natural protein, UniProt Q8NET8 1-790, looked up, C513 labelled with sulfo-Cy3 maleimide or sulfo-Cy5 maleimide (1:1 mixture) in the FRET samples, human TRPV3, full length; all 13 native cysteines replaced, L513C and K169A added; Homotetrameric channel in DDM/CHS with lipids; also called hTRPV3 L513C; S2-S3 linker construct; source: Sf9 cells, baculovirus (Bac-to-Bac), purified (DDM/CHS solubilisation, anti-FLAG resin)) MKAHPKEMVPLMGKRVAAPSGNPAILPEKRPAEITPTKKSAHFFLEIEGFEPNPTVAKTSPPVFSKPMDSNIRQAISGNADDMDSPQSPQDDVTETPSNPNSPSAQLAKEEQRRKKRRLKKRIFAAVSEGAVEELVELLVELQELARRRHDEDVPDFLMHKLTASDTGATALMKALLNINPNTKEIVRILLAFAEENDILGRFINAEYTEEAYEGQTALNIAIERRQGDIAALLIAAGADVNAHAKGAFFNPKYQHEGFYFGETPLALAAATNQPEIVQLLMEHEQTDITSRDSRGNNILHALVTVAEDFKTQNDFVKRMYDMILLRSGNWELETTRNNDGLTPLQLAAKMGKAEILKYILSREIKEKRLRSLSRKFTDWAYGPVSSSLYDLTNVDTTTDNSVLEITVYNTNIDNRHEMLTLEPLHTLLHMKWKKFAKHMFFLSFLFYFFYNITLTLVSYYRPREEEAIPHPLALTHKMGWLQLLGRMFVLIWAMLISVKEGIAIFLLRPSDCQSILSDAWFHFVFFIQAVLVILSVFLYLFAYKEYLAFLVLAMALGWANMLYYTRGFQSMGMYSVMIQKVILHDVLKFLFVYIVFLLGFGVALASLIEKAPKDNKDASSYGSFSDAVLELFKLTIGLGDLNIQQNSKYPILFLFLLITYVILTFVLLLNMLIALMGETVENVSKESERIWRLQRARTILEFEKMLPEWLRSRFRMGELAKVAEDDFRLALRINEVKWTEWKTHVSFLNEDPGPVRRTDFNKIQDSSRNNSKTTLNAFEEVEEFPETSV | 4
human TRPV3 single-cysteine construct A619C (cysteine-free background, K169A) (natural protein, UniProt Q8NET8 1-790, looked up, C619 labelled with sulfo-Cy3 maleimide or sulfo-Cy5 maleimide (1:1 mixture) in the FRET samples, human TRPV3, full length; printed as A619C on the cysteine-free construct, so the native C619 stands again and the other 12 cysteines are replaced; K169A added; Homotetrameric channel in DDM/CHS with lipids; also called hTRPV3 A619C; pore turret construct; source: Sf9 cells, baculovirus (Bac-to-Bac), purified (DDM/CHS solubilisation, anti-FLAG resin)) MKAHPKEMVPLMGKRVAAPSGNPAILPEKRPAEITPTKKSAHFFLEIEGFEPNPTVAKTSPPVFSKPMDSNIRQAISGNADDMDSPQSPQDDVTETPSNPNSPSAQLAKEEQRRKKRRLKKRIFAAVSEGAVEELVELLVELQELARRRHDEDVPDFLMHKLTASDTGATALMKALLNINPNTKEIVRILLAFAEENDILGRFINAEYTEEAYEGQTALNIAIERRQGDIAALLIAAGADVNAHAKGAFFNPKYQHEGFYFGETPLALAAATNQPEIVQLLMEHEQTDITSRDSRGNNILHALVTVAEDFKTQNDFVKRMYDMILLRSGNWELETTRNNDGLTPLQLAAKMGKAEILKYILSREIKEKRLRSLSRKFTDWAYGPVSSSLYDLTNVDTTTDNSVLEITVYNTNIDNRHEMLTLEPLHTLLHMKWKKFAKHMFFLSFLFYFFYNITLTLVSYYRPREEEAIPHPLALTHKMGWLQLLGRMFVLIWAMLISVKEGIAIFLLRPSDLQSILSDAWFHFVFFIQAVLVILSVFLYLFAYKEYLAFLVLAMALGWANMLYYTRGFQSMGMYSVMIQKVILHDVLKFLFVYIVFLLGFGVALASLIEKAPKDNKDCSSYGSFSDAVLELFKLTIGLGDLNIQQNSKYPILFLFLLITYVILTFVLLLNMLIALMGETVENVSKESERIWRLQRARTILEFEKMLPEWLRSRFRMGELAKVAEDDFRLALRINEVKWTEWKTHVSFLNEDPGPVRRTDFNKIQDSSRNNSKTTLNAFEEVEEFPETSV | 4
